Results: PMC8396234

Target: GHSR1a-RLuc (ghrelin GHSR1a receptor fused to Renilla luciferase) (human) (UniProt Q92847)
Conditions: scale: % decrease of forskolin-induced cAMP levels

UniProt Q92847, sequence (Q92847 whole entry, the tested form may be a part): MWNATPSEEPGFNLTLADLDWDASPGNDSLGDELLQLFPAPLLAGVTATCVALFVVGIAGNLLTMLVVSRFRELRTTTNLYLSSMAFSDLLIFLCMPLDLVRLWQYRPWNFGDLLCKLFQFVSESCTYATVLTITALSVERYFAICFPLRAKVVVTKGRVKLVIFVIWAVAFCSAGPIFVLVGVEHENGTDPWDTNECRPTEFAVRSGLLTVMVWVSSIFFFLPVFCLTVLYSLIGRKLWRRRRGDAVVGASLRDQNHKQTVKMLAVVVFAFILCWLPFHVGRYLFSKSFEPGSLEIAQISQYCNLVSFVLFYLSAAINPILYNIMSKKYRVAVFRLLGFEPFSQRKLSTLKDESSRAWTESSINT

- forskolin-induced cAMP levels in HEK-293T cells expressing GHSR1a alone, 200 nM ghrelin: 25
Substance: Ghrelin (peptide)
